Substitutions are numbered along the chain they refer to. Names and notes keep the numbering of the source.
B1: TNV15 (antibody, human IgG1, V domains shown)
VH: QVQLVESGGGVVQPGRSLRLSCAASGFTFSSYAMHWVRQAPGKGLEWVAFILYDGSNKKYADSVKGRFTISRDNSKNALYLQMNSLRAEDTAVYYCARDRGVSAGGNYYYYGMDVWGQGTTVTVSS
VL: EIVLTQSPATLSLSPGERATLSCRASQSVSSYLAWYQQKPGQAPRLLIYDASNRATGIPARFSGSGSGTDFTLTISSLEPEDFAVYYCQQRSNWPPFTFGPGTKVDIK
notes: Totally human IgG1 kappa mAb from the GenTNV fusion, tested as hybridoma supernatant; also called GenTNV15.28.11; C415A
B2: TNV148 (antibody, V domains shown)
VH: B1 VH with T28I, K43N, I51M, L52S, S75P, A78T, V102I, S103A
VL: B1 VL with S30Y
notes: also called GenTNV148.26.12; C420A
B3: TNV196 (antibody, human IgG1, V domains shown)
VH: B1 VH with L52S, Y60S, I70V, A78T, Y80F, Y94F, V102I, S103G
VL: B1 VL with S30Y
notes: Totally human IgG1 kappa mAb from the GenTNV fusion, tested as hybridoma supernatant; also called GenTNV196.9.1; C421A
B4: TNV86 (antibody, V domains shown)
VH: B1 VH with T28I, K43N, I51M, L52S, S75P, A78T, V102I, S103A
VL: B1 VL with S30Y
notes: also called GenTNV86.14.34; C417A

Experiments:
recombinant human TNFα [1] = target: T1, recombinant human TNFα (human, UniProt P01375 77-233, 125I-labeled in the receptor blocking assay); test: competition radioligand assay: mAb in hybridoma supernatant preincubated with 5 ng/ml 125I-TNFα, then cpm bound to plate-coated p55-sf2 counted; blocked partner p55-sf2
T1 construct: It is not tied to the protein used in the assays, so it is not used here; also called huTNFα; tumor necrosis factor alpha
Method: Each sample was tested in duplicate. The results shown are representative of two independent experiments.
(§1) 50:1 of p55-sf2 at 0.5:g/ml in PBS was added to Optiplates to coat the wells during a one-hour incubation at 37° C. Serial dilutions of the eight TNV cell supernatants were prepared in 96-well round-bottom plates using PBS/0.1% BSA as diluent. […] The mixture was preincubated for one hour at RT. […] After 2 hrs at RT, Optiplates were washed three times with PBS-Tween. […] of Microscint-20 was added and the cpm bound determined using the TopCount […].

recombinant human TNFα [2] = target: T1, recombinant human TNFα; test: competition: 125I-TNFα binding to plate-coated p55-sf2, hybridoma supernatant
Method: as §1
The concentrations of the TNV mAbs in their respective cell supernatants were first determined by standard ELISA analysis for human IgG.

recombinant human TNFα [3] = target: T1, recombinant human TNFα; test: cell-based or functional assay

Binder | IC50 (read off the curve) (recombinant human TNFα [1]) | fold better at blocking TNF binding (vs TNV118 and TNV14) (recombinant human TNFα [2]) | neutralizing TNFα bioactivity (recombinant human TNFα [3])
B1 | ~4 ng/mL | – | –
B2 | ~4 ng/mL | ~4 fold | 4 fold (vs TNV14)
B3 | ~4 ng/mL | – | 4 fold (vs TNV14)
B4 | – | ~4 fold | –
